In patent US20250347697A1, “Accurate Method for Generating a Phase Diagram of a Polymer” (MAX-PLANCK-GESELLSCHAFT ZUR FÖRDERUNG DER WISSENSCHAFTEN …, priority 2022, published 2025):

Experiments:
Assay type in all cases: physicochemical
FUS = target: T1, FUS (Homo sapiens, UniProt P35637); experiment: Effect of a small molecule drug on the phase diagram (binodal) of FUS, inPhase method; settings: compared to untreated control (DMSO); temperature phase diagram, FIG. 9
T1 construct: made in house; host or cells: SF9-ESF insect cells (baculovirus) for the unlabelled FUS
T1 sequence (P35637 1-526): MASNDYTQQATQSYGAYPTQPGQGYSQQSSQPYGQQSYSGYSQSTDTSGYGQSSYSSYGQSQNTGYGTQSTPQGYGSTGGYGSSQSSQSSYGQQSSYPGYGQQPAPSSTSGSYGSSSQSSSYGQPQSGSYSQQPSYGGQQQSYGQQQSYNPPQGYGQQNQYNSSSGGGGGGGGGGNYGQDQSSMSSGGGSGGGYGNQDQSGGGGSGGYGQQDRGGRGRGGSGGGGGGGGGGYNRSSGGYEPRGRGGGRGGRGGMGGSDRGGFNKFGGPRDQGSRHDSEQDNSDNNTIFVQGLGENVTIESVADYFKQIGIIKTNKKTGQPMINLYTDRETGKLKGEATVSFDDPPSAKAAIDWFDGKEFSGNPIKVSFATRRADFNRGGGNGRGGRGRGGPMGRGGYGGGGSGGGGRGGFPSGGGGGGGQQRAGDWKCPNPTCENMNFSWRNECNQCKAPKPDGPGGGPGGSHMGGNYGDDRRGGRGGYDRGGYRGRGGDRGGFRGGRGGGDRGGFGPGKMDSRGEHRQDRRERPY
From the text: • 1. Measure the protein concentration of the stock solutions. The stock solutions can be unlabelled, a mix of labelled and unlabelled or fully labelled protein. Solutions containing only unlabelled protein will be detected using brightfield (or phase-contrast, DIC, etc.) while the mixes that contain labelled protein can be also detected with fluorescence means. • 2. Make a titration series of the protein solution. • 3. Trigger phase separation of the protein samples. Phase separation can be triggered for example by a change in salt, pH or temperature. • 4. Immediately after triggering phase separation, encapsulate in a water-in-oil system (e.g. PicoSurf oil (Sphere Fluidics, UK)). • 5. Centrifugation after encapsulation is optional but helps in the segmentation of the condensates. This is because the centrifugation coarsens the condensates. • 6. Load the titration series into chambers for microscopy imaging. […] Now the ratio condensate over emulsion droplet volume which is the volume fraction can be determined. In case of fluorescently labelled proteins the determination of the condensate volume can be complemented by fluorescence microscopy. • 8. Perform the image and segmentation analysis and fit the measured volume-fractions to a linear regression over the protein concentrations. • 9. […]

[1] = Partition factor derived from inPhase phase diagrams (water-in-oil emulsions); settings: range over the tested temperatures and salt (KCl) concentrations, FIG. 15a
From the text: Partition factor and comparison to fluorescence-based quantification. The partition factor (PF) is often used in condensate research to characterise the up-concentration of protein in the condensed phase. It can be defined by the ratio of the condensed-over dilute-phase concentration (PF=ccon/cdil). In the condensate field it is common to determine the partition factor by comparing fluorescence intensity inside the condensate against the intensity in the dilute phase. In contrast, our method allows us to directly determine the partition factor by using the presented phase diagrams (FIG. 13 and FIG. 14).
• 1. Measure the protein concentration of the stock solutions. The stock solutions can be unlabelled, a mix of labelled and unlabelled or fully labelled protein. Solutions containing only unlabelled protein will be detected using brightfield (or phase-contrast, DIC, etc.) while the mixes that contain labelled protein can be also detected with fluorescence means. • 2. […] Now the ratio condensate over emulsion droplet volume which is the volume fraction can be determined. In case of fluorescently labelled proteins the determination of the condensate volume can be complemented by fluorescence microscopy. • 8. Perform the image and segmentation analysis and fit the measured volume-fractions to a linear regression over the protein concentrations. • 9. […]

FUS-GFP = target: T2, FUS-GFP (Homo sapiens, UniProt P35637); experiment: Effect of RNA on protein phase separation (poly(A) RNA : FUS-GFP at fixed molar ratio); settings: titration of total protein concentration at constant poly(A) RNA to protein ratio, FIG. 16
T2 construct: made in house; the listing says 'purified from BAC construct')
Protocol: FUS-GFP containing samples were prepared as described in Example 1. Phase separation was triggered by simultaneously lowering the salt concentration of the sample and adding the Poly(A) RNA in an amount to maintain a fixed molar ratio of Poly(A):FUS-GFP. The volume fraction of the condensed phase was determined as described in Example 1 and cdil and ccon, were determined, wherein ccon represents an apparent concentration containing both Poly(A) (SEQ ID No: 3) and FUS-GFP concentration. The concentration of the single components of the sample can be resolved by the knowledge of the molar ratio of RNA to protein in the condensed phase (FIG. 16).

## NC(=O)CCCCC1CCSS1 (stereo not drawn) [Lipoamide]
FUS
  effect on the phase behavior of FUS (condensed phase branch of the binodal): reduced amount of conformational changes at higher temperatures

B1: PGL-3: protein component of P granules in the germline of C. elegans; spiked with 5% PGL-3::GFP (protein, UniProt G5EBV6 1-693, looked up)
Guanyl-specific ribonuclease …: MEANKRQIVEVDGIKSYFFPHLAHYLASNDELLVNNIAQANKLAAFVLGATDKRPSNEEIAEMILPNDSSAYVLAAGMDVCLILGDDFRPKFDSGAEKLSQLGQAHDLAPIIDDEKKISMLARKTKLKKSNDAKILQVLLKVLGAEEAEEKFVELSELSSALDLDFDVYVLAKLLGFASEELQEEIEIIRDNVTDAFEACKPLLKKLMIEGPKIDSVDPFTQLLLTPQEESIEKAVSHIVARFEEASAVEDDESLVLKSQLGYQLIFLVVRSLADGKRDASRTIQSLMPSSVRAEVFPGLQRSVFKSAVFLASHIIQVFLGSMKSFEDWAFVGLAEDLESTWRRRAIAELLKKFRISVLEQCFSQPIPLLPQSELNNETVIENVNNALQFALWITEFYGSESEKKSLNQLQFLSPKSKNLLVDSFKKFAQGLDSKDHVNRIIESLEKSSSSEPSATAKQTTTSNGPTTVSTAAQVVTVEKMPFSRQTIPCEGTDLANVLNSAKIIGESVTVAAHDVIPEKLNAEKNDNTPSTASPVQFSSDGWDSPTKSVALPPKISTLEEEQEEDTTITKVSPQPQERTGTAWGSGDATPVPLATPVNEYKVSGFGAAPVASGFGQFASSNGTSGRGSYGGGRGGDRGGRGAYGGDRGRGGSGDGSRGYRGGDRGGRGSYGEGSRGYQGGRAGFFGGSRGGS
modifications: spiked with 5% PGL-3::GFP
notes: protein component of P granules in the germline of C. elegans; spiked with 5% PGL-3::GFP
[1]
  partition factor (PF=ccon/cdil): 10^1-10^3

B2: poly(A) RNA: Poly(A) RNA (SEQ ID No: 3) added to FUS-GFP at a fixed molar ratio (nucleic acid)
chain: AAAAAAAAAAAAAAAAAAAAAAAAAAAAAAAAAAAAAAAAAAAAAAAAAAAAAAAAAAAAAAAAAAAAAAAAAAAAAAAAAAAAAAAAAAAAAAAAAAAAAAAAAAAAAAAAAAAAAAAAAAAAAAAAAAAAAAAAAAAAAAAAAAAAAAAAAAAAAAAAAAAAAAAAAAAAAAAAAAAAAAAAAAAAAAAAAAAAAAAAAAAAAAAAAAAAAAAAAAAAAAAAAAAAAAAAAAAAAAAAAAAAAAAAAA
modifications: misc_feature 1..250 Poly(A) RNA
FUS-GFP
  effect of increasing the RNA to protein ratio on cdil: reduces cdil
